Measurements: patent US20160116468A1

Experiments:
[1] = biological target: endogenous EGFR expressed in COS7 cells; assay: diffusion coefficient of endogenous EGFR after against before cetuximab, COS7 cells
[2] = biological target: endogenous EGFR expressed in COS7 cells; assay: diffusion coefficient change of endogenous EGFR (Alexa Fluor 647 Fab of mAb 199.12 as probe) in a COS7 cell, 20 µg/ml cetuximab
[3] = biological target: endogenous EGFR expressed in COS7 cells; assay: diffusion coefficient change of endogenous EGFR (labelled Fab probe), COS7 cells

- Dc2 value as percent of Dc1 value [1]: 60%
- change in diffusion coefficient (%) [2]: 40%
- change in diffusion coefficient (%) [3]: 40%
Substance: cetuximab (antibody)
